Assay results as given in article PMC5665596.

Assays:
MotS (B. subtilis) = assay: high-speed atomic force microscopy
[1] = target: MotS_(D30A) (B. subtilis); assay: high-speed atomic force microscopy

MotS (natural protein)
stoichiometry N (MotS (B. subtilis)): 2

MotS_(D30A) (natural protein)
percent of particles with an unfolded conformation of MotSC [1]: 18%
